Test results as given in article PMC5339705, “OGG1-DNA interactions facilitate NF-κB binding to DNA targets”.

B1: κB2-G3 (dsDNA)
DNA 1: TGAGGGGACCCTGAGCTCAGGGAATTTCCCTGG
DNA 2: CCAGGGAAATTCCCTGAGCTCAGGGTCCCCTCA
modifications: 8-oxoG at strand 1 position 4 (number label read as following the base)
B2: κB2-Wt (dsDNA)
DNA 1: B1 DNA 1
DNA 2: B1 DNA 2
B3: κB2-G4 (dsDNA)
DNA 1: B1 DNA 1
DNA 2: B1 DNA 2
modifications: 8-oxoG at strand 1 position 7
B4: κB2-G6 (dsDNA)
DNA 1: B1 DNA 1
DNA 2: B1 DNA 2
modifications: 8-oxoG at strand 2 position 23 (opposite C11 of strand 1)
B5: κB1-G3 (dsDNA)
DNA 1: TTCCCTGGTCCCCGGGCTTTTCCAGACATCG
DNA 2: CGATGTCTGGAAAAGCCCGGGGACCAGGGAA
modifications: 8-oxoG at strand 2 position 27 (opposite C5 of strand 1)

Experiments:
Settings in all cases: protein: commercial;commercial; tags: ;; copies: 1;1; label: 5' biotin on strand 2; blunt
p65 (RelA);p50 (NF-kB1) [1] = molecular target: T1, p65 (RelA);p50 (NF-kB1) (;, UniProt Q04206;P19838 1-551;1-433, |); assay: EMSA; with OGG1 4 ng; higher than Wt; 10 mM Tris-HCl pH 8.0, 5 mM NaCl, 1 mM EDTA, 1 mM DTT, 0.1 mg/ml BSA, 0.1 µg/µl poly(dI-dC) (stated for NE reactions), 10 fmol probe, 10 µl, RT 5-10 min; 6% gel 0.5x TBE 4 °C
p65 (RelA);p50 (NF-kB1) [2] = molecular target: T1, p65 (RelA);p50 (NF-kB1); assay: EMSA; no OGG1; complex from 5 min; 10 mM Tris-HCl pH 8.0, 5 mM NaCl, 1 mM EDTA, 1 mM DTT, 0.1 mg/ml BSA, 0.1 µg/µl poly(dI-dC) (stated for NE reactions), 10 fmol probe, 10 µl, RT 5-10 min; 6% gel 0.5x TBE 4 °C
p65 (RelA);p50 (NF-kB1) [3] = molecular target: T1, p65 (RelA);p50 (NF-kB1); assay: EMSA; with OGG1 4 ng; highest shifted amount of κB1 oligos; 10 mM Tris-HCl pH 8.0, 5 mM NaCl, 1 mM EDTA, 1 mM DTT, 0.1 mg/ml BSA, 0.1 µg/µl poly(dI-dC) (stated for NE reactions), 10 fmol probe, 10 µl, RT 5-10 min; 6% gel 0.5x TBE 4 °C

T1 sequence (Q04206 whole entry, chain 1 of 2): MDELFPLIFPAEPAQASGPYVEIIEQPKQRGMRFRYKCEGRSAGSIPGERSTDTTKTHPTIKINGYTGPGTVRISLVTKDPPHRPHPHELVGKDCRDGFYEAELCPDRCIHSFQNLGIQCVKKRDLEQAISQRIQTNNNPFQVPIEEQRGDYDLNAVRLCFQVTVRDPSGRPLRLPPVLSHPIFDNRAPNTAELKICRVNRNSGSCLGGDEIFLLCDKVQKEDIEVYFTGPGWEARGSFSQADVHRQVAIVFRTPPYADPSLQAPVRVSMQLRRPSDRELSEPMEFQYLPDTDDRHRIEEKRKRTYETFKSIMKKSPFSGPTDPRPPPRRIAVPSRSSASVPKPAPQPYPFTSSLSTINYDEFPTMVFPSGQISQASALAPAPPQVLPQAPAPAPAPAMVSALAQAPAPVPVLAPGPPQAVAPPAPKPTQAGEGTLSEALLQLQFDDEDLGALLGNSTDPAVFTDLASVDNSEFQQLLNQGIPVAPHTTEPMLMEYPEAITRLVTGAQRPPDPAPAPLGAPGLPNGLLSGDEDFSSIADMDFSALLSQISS
T1 sequence (P19838 1-433, chain 2 of 2): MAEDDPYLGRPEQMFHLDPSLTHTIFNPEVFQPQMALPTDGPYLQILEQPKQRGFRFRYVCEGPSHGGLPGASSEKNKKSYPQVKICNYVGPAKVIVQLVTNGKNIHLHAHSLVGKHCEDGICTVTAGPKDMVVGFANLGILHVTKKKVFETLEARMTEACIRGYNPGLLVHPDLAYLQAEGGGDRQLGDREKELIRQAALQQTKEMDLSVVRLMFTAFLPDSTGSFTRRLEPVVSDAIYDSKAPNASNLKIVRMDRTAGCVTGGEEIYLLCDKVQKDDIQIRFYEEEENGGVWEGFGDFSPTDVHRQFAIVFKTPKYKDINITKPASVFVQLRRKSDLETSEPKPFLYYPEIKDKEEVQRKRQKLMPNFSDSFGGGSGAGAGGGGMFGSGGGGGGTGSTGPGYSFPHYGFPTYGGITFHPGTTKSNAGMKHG

Row | Binder | binding result (p65 (RelA);p50 (NF-kB1) [1]) | other results
1 | B1 | binds | 
2 | B2 |  | binding result (p65 (RelA);p50 (NF-kB1) [2]): binds
3 | B3 | binds | 
4 | B4 | binds | 
5 | B5 |  | binding result (p65 (RelA);p50 (NF-kB1) [3]): binds
